# Test results as given in publication PMC4120239 (Nature communications, 2014).
# Experiments:
# [1] = target: Dsg3-Fc recombinant fusion protein (Homo sapiens, UniProt P32926); assay: SPR
# [2] = target: desmoglein 3 (Dsg3) on Dsg3 ELISA plates (Homo sapiens, UniProt P32926); assay: ELISA
# Chain of desmoglein 3 (Dsg3) on Dsg3 ELISA plates (P32926 50-615): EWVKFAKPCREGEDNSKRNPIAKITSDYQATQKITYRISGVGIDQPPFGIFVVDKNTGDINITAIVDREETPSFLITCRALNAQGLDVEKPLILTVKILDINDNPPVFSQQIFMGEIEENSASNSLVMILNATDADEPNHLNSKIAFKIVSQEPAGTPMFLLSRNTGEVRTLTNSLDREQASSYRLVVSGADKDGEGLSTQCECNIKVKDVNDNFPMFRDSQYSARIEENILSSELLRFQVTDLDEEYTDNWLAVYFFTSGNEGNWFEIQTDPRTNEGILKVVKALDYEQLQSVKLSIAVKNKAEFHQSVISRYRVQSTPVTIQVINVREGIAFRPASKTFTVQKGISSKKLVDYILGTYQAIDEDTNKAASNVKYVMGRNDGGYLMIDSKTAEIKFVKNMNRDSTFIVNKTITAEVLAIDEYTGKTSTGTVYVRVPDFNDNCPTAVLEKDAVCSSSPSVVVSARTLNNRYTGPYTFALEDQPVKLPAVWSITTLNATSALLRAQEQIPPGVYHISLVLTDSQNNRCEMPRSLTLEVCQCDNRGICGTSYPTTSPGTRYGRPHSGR
# Chain of Dsg3-Fc recombinant fusion protein (P32926 50-615): as above
Binder,Kd [1],koff [1],kon [1],binding result [2]
"PVE4-8 scFv mAb, somatically mutated (scFv, V domains shown) VH: QVQLVQSWAEVKKPGASVKFSCKASGYTFTAYYMHWVRQAPGQGLEWMGIINPSGGIATYAEKFQGRVTMTRDTSTTTVYMELSSLRSQDAAVYYCARDRQGFDLDVWGQGTTVTVSS VL: ELVLTQPPSASGSPGQSVTISCTGTSSDVGGYNYVSWYQQHPGKAPKLMIYEVNKRPSGVPDRFSGSRSGNTASLTVSGLQAEDEADYYCSSYAGSNNLVFGGGTKVTVL",2.39 nM,0.00123 s⁻¹,515000 M⁻¹ s⁻¹,–
"4.2 scFv mAb, somatically mutated (scFv, V domains shown) VH: EVQLVQSGAEVKKPGASLKVSCQASGYIFTSHYIHWVRQAPGQGLEWMGIINPSGGKTTFAQKFQGRVTMTRDTSTRTVYMEMSGLRSEDTAVYYCARDQSLGMDVWGQGTTVIVSS VL: ELALTQPPSVSGSPGQSITISCTGTSSDVGGYNYVSWYQQHPGKAPKLMIYEVSKRPSGVSNRFSGSKSGNTASLTISGLQAEDEADYYCSSYAGSNNWVFGGGTKLTVL",0.182 nM,0.000712 s⁻¹,3.91e+06 M⁻¹ s⁻¹,–
"F779 scFv, somatically mutated (scFv, V domains shown) VH: QVQLVQSGADVKKPGASVKVSCTASGNTFTTYSLHWVRQAPGQGLEWMGVIDPSGGSTSYAQKFQGRLTMTRDTSTSTFYMELSSLRSEDTAVYYCARSIESISGRTLGYWGQGTLVTVSS VL: DIVMTQTPLSSPVTLGQPASISCRSSETLVHSDGNTYLSWLQQRPGQPPRLLIYKISNRFSGVPDRFSGSGAGTDFTLKISRVEAEDVGVYYCLQATEFPYTFGQGTKLEIK",1.77 nM,0.000548 s⁻¹,310000 M⁻¹ s⁻¹,binds
"3.2 scFv mAb, somatically mutated (scFv, V domains shown) VH: QVQLVQSGAEVKKPGASVKVSCKASGYTFTSYYMHWVRQAPGHGLEWMGIINPSGGIANYAQKFQGRVTMTRDTSTSTVYMDLSSLTSEDTAVYYCARDLGGFDFDYWGQGTLVTVSS VL: ELALTQPPSVSGSPGQSVTISCTGTSSDIGRYNFVSWYQQHPGKAPKLMIYEIYKRPSGVPDRFSGSRSGNTASLTVSGLQAEDEADYYCSSYVGNNDLVFGGGTQLTVL",1.42 nM,0.00231 s⁻¹,1.62e+06 M⁻¹ s⁻¹,–
